The source of these data is patent US7510708B2, “Disruption of the REG pathway” (Washington University, priority 2003, dated 2009).

The test system of experiment [1] is colon cancer cell lines (e.g. HT29, SW480, T84). Kind of experiment: Upregulation of mRNA of other Reg family members in colon cancer cell lines. The experiment is classed as cell-based. To be noted: FIG. 33. The text has this:
One explanation for this finding could be that a single Reg protein can upregulate expression of other members of the Reg family.

The next experiment relates to HT29. Kind of experiment: Caspase activity in HT29 lysates following oxidative stress (hydrogen peroxide). The experiment is classed as cell-based. To be noted: nanomolar concentrations; HT29 lysates after hydrogen peroxide; FIG. 21.
A further experiment has as its system intestinal stem cells. The experiment is described as follows: Survival of intestinal stem cells following 13 Gy radiation. The format is in vivo, mouse. To be noted: pretreatment, FIGS. 27 and 28. As to the method: Gamma irradiation is a well-defined pro-apoptotic stimulus and is a commonly applied experimental approach to study intestinal epithelial cell death. […] At 6 hours marked apoptosis is seen in the crypt epithelium. By 24 hours, there is a loss of epithelial proliferation. Regenerating crypts, counted at 84 hours, are reflective of a single surviving stem cell.
(§1) Stem cells and their immediate progeny are the only cells in the normal epithelium that are capable of continued proliferation. In this context, epithelial malignancies may reflect a form of disordered stem cell biology. FIGS. 27 and 28 show the effect of exogenous Reg proteins on the survival of intestinal stem cells following 13 Gy radiation. […] We therefore conducted experiments to see if exogenous Reg would promote the survival of colorectal adenocarcinoma cells in response to gamma radiation.

For a further experiment, the system named is HT-29 cells. Kind of experiment: Bcl-xl and Bcl-2 expression after recombinant Reg Iα treatment. The experiment is classed as cell-based. To be noted: FIG. 29 and 30. Here is the method:
Additional colorectal cell lines were also examined to determine if this was a generalized effect on gastrointestinal cells. […] To determine if the increases in Bcl-2 mRNA also were associated with changes in Bcl-2 protein expression, Western blotting was performed on cell lysates taken at various times following Reg treatment.

A further experiment has as its system Akt. Kind of experiment: Activation of the Akt pathway by phosphorylation in cancer cell lines. The format is cell-based. The settings on record: nanomolar concentrations; HCT116, HT29, N87 cells; FIGS. 19 and 20. The text has this: One kinase responsible for protection against apoptosis in tumor cells may be Akt/protein kinase B. Akt, also referred to as Rac, regulates the balance between survival and apoptosis by several mechanisms. Akt may regulate the expression of anti-apoptotic proteins. Because of the effect of Reg on the regulation of Bcl-2 (and Bcl-xl, discussed later), we examined the effects of recombinant Reg IV and Reg Iα on the activation of the Akt pathway. […] Activated Akt has known pleiotropic effects (beyond effects on Bcl-2 family gene expression), reducing the amount of apoptosis occurring either at baseline or in response to a known proapoptotic stimulus.

Experiment [2] deals with colorectal adenocarcinoma cells. The experiment is described as follows: Survival of colorectal adenocarcinoma cells in response to gamma radiation. The experiment is classed as cell-based. To be noted: nanomolar concentrations, FIGS. 31 and 32.
Description: as §1

B1: Reg III: Recombinant human Reg III (pancreatitis-associated protein) expressed by fermentation in Pichia pastoris (protein)
chain: EEPQRELPSARIRCPKGSKAYGSHCYALFLSPKSWTDADLACQKRPSGNLVSVLSGAEGSFVSSLVKSIGNSYSYVWIGLHDPTQGTEPNGEGWEWSSSDVMNYFAWERNPSTISSPGHCASLSRSTAFLRWKDYNCNVRLPYVCKFTD
For B1, in experiment [1], the “mRNA coding for other members of the Reg gene family” value is “upregulation of mRNA coding for other members of the Reg gene family”.

B2: Reg Iα: Recombinant human Reg Iα protein expressed by fermentation in Pichia pastoris (protein)
chain: QEAQTELPQARISCPEGTNAYRSYCYYFNEDRETWVDADLYCQNMNSGNLVSVLTQAEGAFVASLIKESGTDDFNVWIGLHDPKKNRRWHWSSGSLVSYKSWGIGAPSSVNPGYCVSLTSSTGFQKWKDVPCEDKFSFVCKFKN
B2: in the experiment with HT29, the “caspase activity / protection against peroxide-induced apoptosis” value is “reduced caspase activity”. For the same molecule, the stem cell survival result in the experiment on intestinal stem cells was “significantly increased stem cell survival”. The “mRNA coding for other members of the Reg gene family” value in experiment [1] is “upregulation of mRNA coding for other members of the Reg gene family”. Also, the “expression of Bcl-xl and Bcl-2” value in the experiment on HT-29 cells was “increased expression of Bcl-xl and Bcl-2”. Further, the “activation by phosphorylation of Akt” value with Akt is recorded as “rapid activation by phosphorylation of Akt”. Also, the “cell survival from gamma radiation” value in experiment [2] is listed as “improved cell survival”.
